How the values were obtained:
[1] = test system: K4 kissing-loop RNA reporter; assay: apparent KD of K4 kissing-loop reporter; higher = weaker reporter binding; conditions: Eterna round: R107;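 further: bound reporter read as fluorescence of individual clusters on recovered sequencing chips by microscopy, with normalized cluster intensities fitted with a binding model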
Protocol: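 RNA-MaP round R107: designed RNA switches with theophylline, tryptophan, arginine or FMN aptamers are transcribed on-chip within common flanks. They are titrated with a labelled K4 kissing-loop RNA reporter in RNA-MaP buffer (100 mM Tris pH 7.5, 80 mM KCl, 4 mM MgCl2), without ligand or with the indicated ligand. Median apparent KD per design.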

[2] = test system: MS2 coat protein; assay: apparent KD of MS2 coat protein; designed switch direction (-1 OFF switch, 1 ON switch): -1; higher = weaker reporter binding
In short: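 Apparent KD, taken as the median over clusters for each design, was obtained by curve-fitting normalised cluster fluorescence. Designed RNA switches had been transcribed on Illumina chips by stalled E. coli RNA polymerase and titrated with SNAP-549-labelled MS2 coat protein, doubling from 0.7 or 1.5 nM to 3 µM.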

[3] = input ligand: theophylline 20 uM
[4] = input ligand: tryptophan 2.4 mM
[5] = Eterna round: R95, input ligand: microRNA oligo, concentration not stated
[6] = input ligand: microRNA oligo, concentration not stated
[7] = Eterna round: R95, input ligand: FMN 200 uM
[8] = Eterna round: R95, input ligand: none

Sequence	apparent KD of K4 kissing-loop reporter ([1]; input ligand: FMN 200 uM) [µM]	apparent KD of K4 kissing-loop reporter ([1]; input ligand: arginine 13.2 mM) [µM]	apparent KD of K4 kissing-loop reporter ([1]; input ligand: none) [µM]	apparent KD of K4 kissing-loop reporter [1, 3] [µM]	apparent KD of K4 kissing-loop reporter [1, 4] [µM]	also measured
AACUUAAUUUAUAAGCAGUGAUGUUGCUUACGAGGACCGGUACGGCCGCCACUCGAUCGCAUUUAUGUCUUCAAUUAAUUCAUUA [JR_ExcTryptoA_Sub016]	0.178	0.196	0.197	0.237	0.195	
AAGAGGUAGGCGGCCGCCACUAGUUGUGAACACAUACAAGCCAGUGAUGUUGGUAUGGUGGGCGGUAGGACCGGGCCUACCUGAA [Exclusion - Tryptophan B (Freestyle 17)]	0.23	0.263	0.257	0.25	0.243	
AAGCAGUCACUCGAACCCAUCGAAGAUGGUCGAGGACCGGUACGGCCGCCACUCGGAGUGAUGUUCCGCAGACUGCAAAAUAAAA	0.377	0.464	0.426	0.511	0.312	
AAGGCAAUUCGAGGAUAUCACAUACACUCCUUGAAUCAAGGAGUGAUGUUCCUUGAAGUGUAUGCAUGAGAAGGCGAAUUGCCUU [#05 K4 FMN B Same State]	0.113	0.0865	0.0954	0.0993	0.0953	
AAGGCCACGAGAAGGAGCGUGUUGUGGAGUGAUGUUCCAUUGUAGACCUAAGGUCUACAAGCACAGGUAGGUCGCUCGUGGUCAA [Omei KL Arginine B SS A v5]	0.131	0.12	0.132	0.112	0.119	
AAGGGCUAGGCGGCCGCCACUGGUCGUGAACACAUACGAGCCAGUGAUGUUGGUAUUGUGUGCGGCAGGACCGGGCCUAGCCGAA [Exclusion - Tryptophan B (Freestyle 24)]	0.343	0.338	0.391	0.409	0.462	
AAGUAGCUCUCGGCCGCCACUCCUCAGUGAUGUUGAGAUAUUAAGAGCCAAUUGGCUCAUAUAAAGAGGACCGGGAGAGCUACAA [AK4 SS Tryptophan B]	0.248	0.276	0.357	0.282	0.128	
UUUUUACGAGGAUAUCGUUUUUUUCACAUGAGGAUCACCCAUGUUGUUUAUGUUGCGUUGCGAGAAGGCGUUUGUU [JR_E5_Sub063] (puzzle: Exclusion 5)						apparent KD of MS2 coat protein [2, 5]: 0.0242 µM
UUUUUAUAUGAAGGAUAUACUAAACAUGAGGAUCACCCAUGUGGUGUUGUGAGUGAGAGAGAUAAGUAGAAGGUCAAUUAUUUU [JMF's solution 4] (Eterna round: R96, puzzle: Exclusion NG 2)						apparent KD of MS2 coat protein ([2]; input ligand: FMN 200 uM): 0.348 µM; apparent KD of MS2 coat protein [2, 6]: 0.0626 µM; apparent KD of MS2 coat protein ([2]; input ligand: none): 0.0908 µM
UUUUUAUAUGAAGGAUAUACUUAACAUGAGGAUCACCCAUGUGGUGUUGUGAGUGAGUGAGUUUAGUAGAAGGUCAAGUAUUAU [JMF's solution 38] (Eterna round: R96, puzzle: Exclusion NG 2)						apparent KD of MS2 coat protein ([2]; input ligand: FMN 200 uM): 0.776 µM; apparent KD of MS2 coat protein [2, 6]: 0.265 µM; apparent KD of MS2 coat protein ([2]; input ligand: none): 0.464 µM
UUUUUCGGACAAGCUACGUACAUGAGGAUCACCCAUGUCGGUAGAUUUGAGUAGGUUUGGAUGGAAGCUCGUCUUAU [JR_SV3TOV1_Sub084] (puzzle: Sensor v3, turn-off variant 1)						apparent KD of MS2 coat protein [2, 7]: 0.0409 µM; apparent KD of MS2 coat protein [2, 5]: 0.0535 µM; apparent KD of MS2 coat protein [2, 8]: 0.0532 µM
UUUUUCUCAGGAUAUACAUGAGGAUCACCCAUGUAUAUUAAAAAUAAUACAUGGGAAUGUAGAAGGGAGCUCAU [Omei Ex3 Pseudoloop 9] (Eterna round: R97, puzzle: Exclusion 3)						apparent KD of MS2 coat protein ([2]; input ligand: FMN 200 uM): 0.141 µM; apparent KD of MS2 coat protein ([2]; input ligand: none): 0.161 µM
UUUUUGUCAGGAUAUGCAUGUUUUUUUUUUUUUUUUUUCAUGCAGAAGGGACAUGAGGAUCACCCAUGUAGUUU [Ex4 - 3 - 10] (Eterna round: R96, puzzle: Exclusion 4)						apparent KD of MS2 coat protein ([2]; input ligand: FMN 200 uM): 0.0537 µM; apparent KD of MS2 coat protein [2, 6]: 0.0617 µM; apparent KD of MS2 coat protein ([2]; input ligand: none): 0.0632 µM
UUUUUGUCAGGAUAUGCAUGUUUUUUUUUUUUUUUUUUCAUGCAGAAGGGACAUGAGGAUCACCCAUGUAGUUU [Ex4 - 3 - 10] (puzzle: Exclusion 4)						apparent KD of MS2 coat protein [2, 7]: 0.0343 µM; apparent KD of MS2 coat protein [2, 5]: 0.0234 µM; apparent KD of MS2 coat protein [2, 8]: 0.0379 µM
UUUUUGUGAGGAUAUCAGUAGUAAAAAAAUAAAAUUACUACUGAGAAGGCACAUGAGGAUCACCCAUGUUUUUU [salish99_ex4_r3_013] (puzzle: Exclusion 4)						apparent KD of MS2 coat protein [2, 5]: 0.0433 µM
UUUUUGUGAGGAUAUCAGUAGUAAAUAAAUAAAAUUACUACUGAGAAGGCACAUGAGGAUCACCCAUGUUUUUU [Mat - Exclusion 4 - Mod of Salish - D68] (puzzle: Exclusion 4)						apparent KD of MS2 coat protein [2, 5]: 0.0418 µM
UUUUUUUUGCGAGGAUAUGCUUUUAGUUAGUUAGCAGAAGGCGCGUUUCUUUUCUCCUCUUCUUACAUGAGGAUCACCCAUGUU [JR_ExcNG1_Sub034] (Eterna round: R96, puzzle: Exclusion NG 1)						apparent KD of MS2 coat protein ([2]; input ligand: FMN 200 uM): 0.0557 µM; apparent KD of MS2 coat protein [2, 6]: 0.0367 µM; apparent KD of MS2 coat protein ([2]; input ligand: none): 0.0541 µM

Reference: the supplement of paper PMC9170038
